Biological target: T1, FLPo (codon-optimized FLPe recombinase) (UniProt P03870)
T1 sequence: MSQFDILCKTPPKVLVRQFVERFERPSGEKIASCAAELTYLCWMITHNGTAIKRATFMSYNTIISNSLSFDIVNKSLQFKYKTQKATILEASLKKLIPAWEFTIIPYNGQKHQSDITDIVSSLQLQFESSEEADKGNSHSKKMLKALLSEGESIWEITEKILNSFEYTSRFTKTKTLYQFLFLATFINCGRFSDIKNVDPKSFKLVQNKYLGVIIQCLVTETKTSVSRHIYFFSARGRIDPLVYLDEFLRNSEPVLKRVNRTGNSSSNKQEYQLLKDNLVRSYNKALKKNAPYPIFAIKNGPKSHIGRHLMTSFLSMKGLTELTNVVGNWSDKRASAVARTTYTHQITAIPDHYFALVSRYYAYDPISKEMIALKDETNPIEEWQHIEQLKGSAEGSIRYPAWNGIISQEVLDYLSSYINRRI
Test: cell_activity

## FRT (FLP recognition site) in ROSA26 PLAP reporter
Stable integration, 7 of 14 colonies
  activity (% of hygroR colonies recombined): 50
transient, mouse FLP reporter ES cells, 10 ug circular plasmid, 5 days, value stated as nearly 75%, nearly 20-fold over FLPe
  activity: 75%
